These results are taken from PMC4733052, “Heart of glass anchors Rasip1 at endothelial cell-cell junctions to support vascular integrity” (eLife, 2016).

Sequences and labels used below:
B2: human Rap1 isoform Rap1B (residues 1–167), GMP-PNP-bound (natural protein, UniProt P61224 1-167, looked up)
chain: MREYKLVVLGSGGVGKSALTVQFVQGIFVEKYDPTIEDSYRKQVEVDAQQCMLEILDTAGTEQFTAMRDLYMKNGQGFALVYSITAQSTFNDLQDLREQILRVKDTDDVPMILVGNKCDLEDERVVGKEQGQNLARQWNNCAFLESSAKSKINVNEIFYDLVRQINR
notes: Rap1B, human, residues 1-167; Loaded with GMP-PNP; expression and purification as in Gingras et al., 2013; source: Escherichia coli strain CK600K (pTAC vector), purified, nucleotide exchanged for GMP-PNP
B3: recombinant Rasip1 RA domain (residues 134-285) (domain or fragment, human, UniProt Q5U651 134-285, looked up)
chain: EPPLATRATAPPGVLKIFGAGLASGANYKSVLATARSTARELVAEALERYGLAGSPGGGPGESSCVDAFALCDALGRPAAAGVGSGEWRAEHLRVLGDSERPLLVQELWRARPGWARRFELRGREEARRLEQEAFGAADSEGTGAPSWRPQK
notes: Rasip1, human, Ras-association (RA) domain residues 134-285; Cloned into pETM-11; also called Rasip1 RA domain wild-type; Rasip1 wild-type

Data set [1] has as its target T1, αIIb integrin cytoplasmic tail (Homo sapiens (Human), UniProt P08514, biotin on the in vivo biotinylation peptide tag).
T1 chain: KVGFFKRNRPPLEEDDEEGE
The data set can be described thus: pull-down (NeutrAvidin bead-immobilised tail peptide, Coomassie-stained SDS-PAGE).

The target of data set [2] is B3. The data set is described as follows: ITC; VP-ITC at 25°C; 335 μM GMP-PNP-bound Rap1B from the syringe into 30 μM Rasip1 RA domain (monomer concentration) in the cell; 20 mM Sodium Phosphate, 200 mM NaCl, 3 mM MgCl2, pH 6.5, 0.1 mM GMP-PNP; single-site fit. To be noted: both partners purified. For orientation: Isothermal titration calorimetry measures the heat released or taken up as one component is titrated into another.

Data set [3] deals with B2. Described as above. To be noted: both partners purified.
Data set [4] concerns the molecule itself. The data set can be described thus: SEC; Rasip1 RA domain alone (50 μM) on Superdex-75 (10/300); apparent mass against calculated monomer mass 16.3 kDa.

B1: recombinant His-MBP-fusion Rasip1 central domain (residues 266-550) (protein)
chain: EAFGAADSEGTGAPSWRPQKNRSRAASGGAALASPGPGTGSGAPAGSGGKERSENLSLRRSVSELSLQGRRRRQQERRQQALSMAPGAADAQIGTADPGDFDQLTQCLIQAPSNRPYFLLLQGYQDAQDFVVYVMTREQHVFGRGGNSSGRGGSPAPYVDTFLNAPDILPRHCTVRAGPEHPAMVRPSRGAPVTHNGCLLLREAELHPGDLLGLGEHFLFMYKDPRTGGSGPARPPWLPARPGATPPGPGWAFSCRLCGRGLQERGEALAAYLDGREPVLRFRPR
Take B1: the binding result in data set [1] is reported as “no binding”.

What is called stoichiometry N is the number of molecules, sites or subunits per partner or assembly. With B2, in data set [2], the “stoichiometry N” value was 2 Rap1 monomers per Rasip1 dimer.

By Kd is commonly meant a measure of binding affinity in units of concentration. Turning to B3, the Kd in data set [3] is 0.77 ± 0.09 µM. Besides, the “stoichiometry N” value in data set [4] was 2.

B4: recombinant Rasip1 RA domain (residues 134-285) R182E (domain or fragment, human, UniProt Q5U651 134-285, looked up)
chain: EPPLATRATAPPGVLKIFGAGLASGANYKSVLATARSTARELVAEALEEYGLAGSPGGGPGESSCVDAFALCDALGRPAAAGVGSGEWRAEHLRVLGDSERPLLVQELWRARPGWARRFELRGREEARRLEQEAFGAADSEGTGAPSWRPQK
notes: Rasip1, human, RA domain residues 134-285 with R182E; also called Rasip1(R182E); Rasip1 RA domain (R182E)
In the case of B4, the binding result in data set [4] is “binds”.
